Data taken from patent EP4578877A1 (Nanjing Leads Biolabs Co., Ltd., dated 2025).
Positions count from the first letter of the chain named. Numbers in names are those of the source.

T1: human FAP protein expressed on 293T cells (293T-human FAP) (human, UniProt Q12884 1-760)
T1 sequence: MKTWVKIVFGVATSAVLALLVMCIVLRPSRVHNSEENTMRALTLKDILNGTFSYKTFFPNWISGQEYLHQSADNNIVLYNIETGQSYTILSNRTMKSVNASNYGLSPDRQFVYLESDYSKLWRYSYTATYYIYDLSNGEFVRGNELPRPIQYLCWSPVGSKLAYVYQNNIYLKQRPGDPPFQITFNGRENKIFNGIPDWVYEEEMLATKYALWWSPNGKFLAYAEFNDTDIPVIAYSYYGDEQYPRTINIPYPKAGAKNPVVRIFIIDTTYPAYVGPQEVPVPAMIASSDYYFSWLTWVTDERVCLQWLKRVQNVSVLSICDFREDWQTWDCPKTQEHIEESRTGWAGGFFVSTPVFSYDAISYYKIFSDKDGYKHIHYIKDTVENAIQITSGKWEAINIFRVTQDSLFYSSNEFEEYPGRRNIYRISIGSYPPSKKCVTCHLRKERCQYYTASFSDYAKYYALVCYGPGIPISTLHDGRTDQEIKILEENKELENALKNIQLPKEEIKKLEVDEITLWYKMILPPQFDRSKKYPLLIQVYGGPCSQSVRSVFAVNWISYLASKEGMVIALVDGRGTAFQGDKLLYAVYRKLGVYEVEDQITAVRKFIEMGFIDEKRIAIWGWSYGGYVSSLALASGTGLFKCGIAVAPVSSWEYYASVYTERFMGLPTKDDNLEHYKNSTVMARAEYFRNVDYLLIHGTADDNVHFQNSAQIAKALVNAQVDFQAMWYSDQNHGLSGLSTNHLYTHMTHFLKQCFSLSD

T2: cynomolgus FAP protein expressed on 293T cells (293T-cynomolgus FAP) (cynomolgus, UniProt Q12884 1-760 (human entry))
T2 sequence: T1 sequence with S29P, V261F, E417D

T3: recombinant human FAP protein (Sino Biological, Cat# 10464-H07H) (human, UniProt Q12884 26-760)
T3 construct: Bought protein
T3 sequence: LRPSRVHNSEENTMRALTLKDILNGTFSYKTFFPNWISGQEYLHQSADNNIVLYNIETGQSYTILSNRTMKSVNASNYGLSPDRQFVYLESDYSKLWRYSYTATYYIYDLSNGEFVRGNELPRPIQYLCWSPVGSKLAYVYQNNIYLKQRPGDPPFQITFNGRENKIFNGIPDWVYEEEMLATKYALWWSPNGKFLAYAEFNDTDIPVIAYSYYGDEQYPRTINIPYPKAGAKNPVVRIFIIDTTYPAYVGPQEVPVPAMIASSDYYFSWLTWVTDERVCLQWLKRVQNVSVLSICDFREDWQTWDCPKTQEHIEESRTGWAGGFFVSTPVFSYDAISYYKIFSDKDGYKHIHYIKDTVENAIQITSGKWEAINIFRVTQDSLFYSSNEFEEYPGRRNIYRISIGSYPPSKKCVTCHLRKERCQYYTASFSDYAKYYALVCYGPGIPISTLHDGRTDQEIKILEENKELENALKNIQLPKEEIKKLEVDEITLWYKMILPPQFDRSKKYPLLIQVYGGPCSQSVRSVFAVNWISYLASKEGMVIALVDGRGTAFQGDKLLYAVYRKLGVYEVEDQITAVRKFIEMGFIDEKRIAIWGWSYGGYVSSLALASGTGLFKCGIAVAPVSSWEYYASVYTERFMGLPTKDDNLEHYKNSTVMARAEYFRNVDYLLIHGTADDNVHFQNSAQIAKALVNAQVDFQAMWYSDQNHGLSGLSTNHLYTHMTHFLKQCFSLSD

B1: humanized anti-FAP antibody huF19-LG (antibody, human IgG1, kappa, V domains shown)
VH: QVQLVQSGAEVKKPGASVKVSCKASGYTFTEYTIHWVRQATGQGLEWIGGINPNNGIPNYNQKFKGRATMTVGTSISTAYMELSSLRSEDTAVYFCARRRIAYGYDEGHAMDYWGQGTLVTVSS
VL: DIQMTQSPSSLSASVGDRVTITCKSSQSLLYSRNQKNYLAWFQQKPGKAPKLLIFWASTRESGVPSRFTGSGFGTDFTLTISSLQPEDFATYYCQQYFSYPLTFGQGTKLEIKR
notes: Full-length human IgG1/kappa; expressed in ExpiCHO-S
B2: sibrotuzumab (humanized reference anti-FAP antibody) (antibody, human IgG1, kappa, V domains shown)
VH: B1 VH with A24T, G26R, T41P, G44R, A68V, M70I, G73D, I76A, F95Y
VL: DIVMTQSPDSLAVSLGERATINCKSSQSLLYSRNQKNYLAWYQQKPGQPPKLLIFWASTRESGVPDRFSGSGFGTDFTLTISSLQAEDVAVYYCQQYFSYPLTFGQGTKVEIKR
notes: Full-length human IgG1/kappa
B3: mutant humanized FAP antibody huF19-LG-NGR (antibody, human IgG1, kappa, V domains shown)
VH: B1 VH with G56R
VL: B1 VL
notes: huF19-LG with G56R (Kabat) in HCDR2; also called optimized FAP antibody

What was measured:
[1] = target: recombinant human FAP protein (Sino Biological, Cat# 10464-H07H) (human) (UniProt Q12884); assay: ELISA on immobilized human FAP; antibody stored at 40 °C for 0 weeks
[2] = target: recombinant human FAP protein (Sino Biological, Cat# 10464-H07H) (human) (UniProt Q12884); assay: ELISA on immobilized human FAP; antibody stored at 40 °C for 4 weeks, relative to 0 weeks
[3] = target: T1, human FAP protein expressed on 293T …; assay: flow cytometry on 293T-human FAP cells
[4] = target: recombinant human FAP protein (Sino Biological, Cat# 10464-H07H) (human) (UniProt Q12884); assay: ELISA on immobilized human FAP; antibody stored at 40 °C for 2 weeks, relative to 0 weeks
[5] = target: T2, cynomolgus FAP protein expressed on …; assay: flow cytometry on 293T-cynomolgus FAP cells
[6] = target: T3, recombinant human FAP protein (Sino …); assay: ELISA, human FAP protein immobilized on plate

Row | Binder | ELISA Relative activity [1] [%] | ELISA Relative activity [2] [%] | binding result [3] | ELISA Relative activity [4] [%] | binding result [5] | binding result [6]
1 | B1 | 100 | 89.9 | binds | 93.8 | binds | 
2 | B2 |  |  | binds |  | binds | binds
3 | B3 |  |  | binds |  | binds | 
